Assay results reported in patent US20230321261A1, “AXL-SPECIFIC ANTIBODY-DRUG CONJUGATES FOR CANCER TREATMENT” (GENMAB A/S, priority 2016, published 2023).

What was measured:
[1] = molecular target: T1, AXL on A431 cells (Homo sapiens, UniProt P30530); assay: Antibody binding to A431 cells with or without Gas6 pre-incubation; conditions: for Antibody binding to A431 cells: EC50 in presence of Gas6 (µg/mL) mean (s.d.) / Antibody binding to A431 cells: Maximal binding in presence of Gas6 (% of binding in absence of Gas6) mean (s.d.): pre-incubation with 10 µg/mL Gas6; for Antibody binding to A431 cells: EC50 w/o Gas6 (µg/mL) mean (s.d.): without Gas6 pre-incubation
T1 construct: AXL-positive A431 cells were incubated; endogenous in cells; host or cells: A431

[2] = molecular target: T2, Gas6 binding to AXL on A431 cells (Homo sapiens, UniProt P30530); assay: Gas6 binding to A431 cells pre-incubated with AXL antibodies; conditions: pre-incubation with 10 µg/mL antibody; control antibody b12
T2 construct: endogenous in cells; host or cells: A431
Protocol: Alternatively, A431 cells were pre-incubated with 10 µg/mL AXL antibodies (15 minutes, 4° C.) to assess if the AXL ligand Gas6 could still bind in presence of AXL antibodies. […] After washing three times in PBS/0.1% BSA/0.02% azide, cells were incubated with mouse anti-Gas6 IgG2a (R&D Systems; cat no. MAB885) at 4° C. for 30 min. After washing three times in PBS/0.1% BSA/0.02% azide, cells were incubated with FITC-labelled goat anti-mouse IgG (Dako, Heverlee, Belgium; cat no. F049702) at 4° C. for 30 min in the dark. Next, cells were washed twice in PBS/0.1% BSA/0.02% azide, resuspended in 120 µL PBS/0.1% BSA/0.02% azide and analyzed on a FACS Cantoll (BD Biosciences).
(§1) Binding curves were analyzed using non-linear regression (sigmoidal dose-response with variable slope) using GraphPad Prism V5.04 software (GraphPad Software, San Diego, CA, USA).
Therefore, binding of Gas6 to A431 cells that had been pre-incubated with 10 µg/mL AXL antibodies was tested as described in Example 2.

[3] = molecular target: T3, AXLECDHis (extracellular domain of human AXL) (Homo sapiens, UniProt P30530); assay: Binding affinity by Bio-Layer Interferometry (ForteBio OctetRED384); conditions: 1:1 model, 30° C.
T3 construct: the extracellular domain (ECD) of human AXL (aa 1-447) with a C-terminal His tag (AXLECDHis); His tag (C); made in house; host or cells: HEK-293F

[4] = molecular target: T4, human-mouse chimeric AXL mutants (Homo sapiens, UniProt P30530, A273L/A287V/A310S/E275K/E281D/G297E/H300L/L233V/M269V/N230H/P276S/P329T/Q227R/Q272W/R229H/S285L/S298K/S319P/T259N/T312S/V309I); assay: AXL domain specificity using human-mouse AXL chimeric molecules (flow cytometry); type: binding; conditions: 1 µg/mL antibody
T4 construct: constructs for expression of various full-length AXL variants were generated; expressed in transfected cells; host or cells: HEK293F

[5] = molecular target: T5, full length human AXL (Homo sapiens, UniProt P30530); assay: Flow cytometry binding to transfected HEK293T cells; conditions: at least 3 experiments
T5 construct: expression constructs for full length human AXL; expressed in transfected cells; host or cells: HEK293T
Protocol: HEK293T cells were transiently transfected with expression constructs for full length human AXL, human AXL with a cynomolgus monkey extracellular domain (ECD) or human AXL with a mouse ECD (see Example 1). Binding of HuMab-AXL antibodies to these cells was evaluated by flow cytometry. Transfected HEK293 cells were incubated with serial dilutions of AXL-antibodies (final concentration range 0.0024-10 µg/mL) for 30 minutes at 4° C. […] Next, cells were washed twice in PBS/0.1% BSA/0.02% azide, resuspended in 120 µL PBS/0.1% BSA/0.02% azide and analyzed on a FACS Cantoll (BD Biosciences).
as §1

[6] = molecular target: T6, human AXL with a cynomolgus monkey extracellular domain (ECD) (Homo sapiens, UniProt P30530, P441T/S191N/S285L/T105A/T112A/T125N/T443A); assay: as above; conditions: at least 3 experiments
T6 construct: aa 1-447); human AXL transmembrane and intracellular part (the remainder of human AXL after the ECD; expressed in transfected cells; host or cells: HEK293T

[7] = test system: LCLC-103H xenograft tumors; assay: LCLC-103H xenograft model; type: in vivo, SCID mice; conditions: 3 mg/kg (Example 13, FIG. 14A)
Protocol: 5 × 10^6 LCLC-103H (large cell lung carcinoma) tumor cells (obtained from Leibniz-Institut DSMZ-Deutsche Sammlung von Mikroorganismen und Zellkulturen GmbH (DSMZ)) in 200 µL PBS were injected subcutaneously in the right flank of female SCID mice. Starting 14-21 days after tumor cell inoculation, when the average tumor size was >100-200 mm^3 and distinct tumor growth was observed, a single injection with 1 mg/kg (20 µg/mouse) IgG1-AXL-vcMMAE antibodies (as described in Supplementary Example 1) or control (unconjugated IgG1-b12) was given intraperitoneally (100 µL/mouse). Tumor volume was determined at least two times per week. Tumor volumes (mm^3) were calculated from caliper (PLEXX) measurements as: 0.52 × (length) × (width)^2.
(§2) Tumor induction was performed by subcutaneous injection of 5 × 10^6 A431 or LCLC-103H tumor cells (both obtained from Leibniz-Institut - Deutsche Sammlung von Mikroorganismen und Zellkulturen GmbH (DSMZ)) in 200 µL PBS in the right flank of female SCID mice. Treatment was started 14-21 days after tumor cell inoculation, when the average tumor size was >100-200 mm^3 and distinct tumor growth was observed. Mice received a single injection or a total of 4 biweekly intraperitoneal injections with IgG1-AXL-vcMMAE ADCs or control antibody (unconjugated IgG1-b12), as indicated. Tumor volume was determined at least two times per week. Tumor volumes (mm^3) were calculated from caliper (PLEXX) measurements as: 0.52 × (length) × (width)^2.

[8] = test system: A431 tumors; assay: A431 xenograft model (high Gas6); type: in vivo, SCID mice; conditions: 3 mg/kg
Protocol: as §2

[9] = molecular target: T7, human AXL transiently expressed by HEK-293F cells (Homo sapiens, UniProt P30530); assay: Homogeneous antigen specific screening assay (FMAT); type: binding
T7 construct: TH1021-AXL (HEK-293F cells transiently expressing full length human AXL; produced as described above); expressed in transfected cells; host or cells: HEK-293F

B1: IgG1-AXL-183: AXL-specific human IgG1,κ antibody, VH SEQ ID NO:16, VL SEQ ID NO:18, FN1 domain binding (antibody, listed as Homo sapiens, V domains shown)
VH: QVQLQQWGAGLLKPSETLSLTCAVYGGSFSGYYWSWIRQPPGKGLEWIGEINQSGSTNYNPSLKSRVTISVDTSKNQFSLKLSSVTAADTSVYYCASGNWDHFFDYWGQGTLVTVSS
VL: DIQMTQSPSSVSASVGDRVTITCRASQGISSWLAWYQHKPGKAPKLLIYATSSLQSGVTSRFSGSGSGTDFTLTISSLQPEDFATYYCQQAKSFPWTFGQGTKVEIK
**Q.** How did the “Antibody binding to A431 cells: EC50 in presence of Gas6 (µg/mL) mean (s.d.)” value [1] turn out when B1 was run?
**A.** The value was 1.19 (1.11) µg/mL.

**Q.** And the “Antibody binding to A431 cells: Maximal binding in presence of Gas6 (% of binding in absence of Gas6) mean (s.d.)” value [1]?
**A.** Its value is 90 (19) %.

**Q.** And the “Antibody binding to A431 cells: EC50 w/o Gas6 (µg/mL) mean (s.d.)” value [1]?
**A.** Its value is 0.69 (0.72) µg/mL.

**Q.** And the “Gas6 binding to A431 cells: Maximal binding in presence of AXL antibodies (% of binding in presence of control antibody) mean (s.d.)” value [2]?
**A.** Its value is 115 (8) %.

**Q.** What about the “Binding affinity (OCTET) Kdis” value [3] of the same molecule?
**A.** Its value is 0.00042 s⁻¹.

**Q.** What about the “binding to hsAXL-mmFN1” value [4] of the same molecule?
**A.** Its value is “reduced binding”.

**Q.** And the “Binding EC50 (µg/mL) human AXL Average (s.d.)” value [5]?
**A.** Its value is 0.526 (0.177) µg/mL.

**Q.** And the “Binding EC50 (µg/mL) cynomolgus AXL Average (s.d.)” value [6]?
**A.** The value was 0.309 (0.086) µg/mL.

B2: IgG1-AXL-183-N52Q: point mutant of IgG1-AXL-183, VH SEQ ID NO:17, VL SEQ ID NO:18 (antibody, listed as Homo sapiens, V domains shown)
VH: QVQLQQWGAGLLKPSETLSLTCAVYGGSFSGYYWSWIRQPPGKGLEWIGEIQQSGSTNYNPSLKSRVTISVDTSKNQFSLKLSSVTAADTSVYYCASGNWDHFFDYWGQGTLVTVSS
VL: DIQMTQSPSSVSASVGDRVTITCRASQGISSWLAWYQHKPGKAPKLLIYATSSLQSGVTSRFSGSGSGTDFTLTISSLQPEDFATYYCQQAKSFPWTFGQGTKVEIK
**Q.** For B2, which “Binding affinity (OCTET) Kdis” value [3] is on record?
**A.** The value was 0.001 s⁻¹.

**Q.** What about the “Binding affinity (OCTET) Kon” value [3] of the same molecule?
**A.** Its value is 42000 M⁻¹ s⁻¹.

**Q.** What about the “Binding EC50 (µg/mL) human AXL Average (s.d.)” value [5] of the same molecule?
**A.** The value was 0.350 (0.206) µg/mL.

**Q.** And the “Binding EC50 (µg/mL) cynomolgus AXL Average (s.d.)” value [6]?
**A.** Its value is 0.324 (0.121) µg/mL.

B3: IgG1-AXL-183-vcMMAE (conjugate)
VH: QVQLQQWGAGLLKPSETLSLTCAVYGGSFSGYYWSWIRQPPGKGLEWIGEINQSGSTNYNPSLKSRVTISVDTSKNQFSLKLSSVTAADTSVYYCASGNWDHFFDYWGQGTLVTVSS
VL: DIQMTQSPSSVSASVGDRVTITCRASQGISSWLAWYQHKPGKAPKLLIYATSSLQSGVTSRFSGSGSGTDFTLTISSLQPEDFATYYCQQAKSFPWTFGQGTKVEIK
**Q.** For B3, which “anti-tumor activity in the LCLC-103H xenograft model” value [7] is on record?
**A.** Its value is “tumor regression”.

**Q.** And the “anti-tumor activity in the A431 xenograft model” value [8]?
**A.** The value was “growth inhibition”.

B4: IgG1-AXL-511: AXL-specific human IgG1,κ antibody, VH SEQ ID NO:136, VL SEQ ID NO:140, Ig2 domain binding (antibody, listed as Homo sapiens, V domains shown)
VH: EVQLLESGGGLVQPGGSLRLSCAASGFTFSSYAMNWVRQAPGKGLEWVSGISGSGGHTYHADSVKGRFTISRDNSKNTLYLQMNSLRAEDTAVYYCAKDRYDILTGYYNLLDYWGQGTLVTVSS
VL: DIQMTQSPSSLSASVGDRVTITCRASQGISSWLAWYQQKPEEAPKSLIYAASSLQSGVPSRFSGSGSGTDFTLTISSLQPEDFATYYCQQYNSYPLTFGGGAKVEIK
**Q.** How did the “Antibody binding to A431 cells: EC50 in presence of Gas6 (µg/mL) mean (s.d.)” value [1] turn out when B4 was run?
**A.** Its value is 0.30 (0.31) µg/mL.

**Q.** What about the “Antibody binding to A431 cells: Maximal binding in presence of Gas6 (% of binding in absence of Gas6) mean (s.d.)” value [1] of the same molecule?
**A.** Its value is 93 (15) %.

**Q.** And the “Antibody binding to A431 cells: EC50 w/o Gas6 (µg/mL) mean (s.d.)” value [1]?
**A.** Its value is 0.12 (0.11) µg/mL.

**Q.** What about the “Gas6 binding to A431 cells: Maximal binding in presence of AXL antibodies (% of binding in presence of control antibody) mean (s.d.)” value [2] of the same molecule?
**A.** Its value is 113 (6) %.

**Q.** What about the “Binding affinity (OCTET) Kdis” value [3] of the same molecule?
**A.** Its value is 0.0039 s⁻¹.

**Q.** And the “Binding affinity (OCTET) Kon” value [3]?
**A.** The value was 170000 M⁻¹ s⁻¹.

B5: IgG1-AXL-726-vcMMAE (conjugate)
VH: QVQLQQWGAGLLKPSETLSLTCAIDGGSFSGYYWSWIRQPPGKGLEWIGEISHSGRTNYNPSLKSRVTISIDTSKNQFSLKLSSVAAADTAVYYCARFITMIRGAIITHFDYWGQGALVTVSS
VL: DIQMTQSPSSLSASVGDRVTITCRASQGISSWLAWYQQKPEKAPKSLIYAASSLQSGVPSRFSGSGSGTDFTLTISSLQPEDFATYYCQQYHSYPYTFGQGTKLEIK
**Q.** What does the source list for B5?
**A.** anti-tumor activity in the LCLC-103H xenograft model [7]: tumor regression; anti-tumor activity in the A431 xenograft model [8]: growth inhibition

B6: IgG1-AXL-140: AXL-specific human IgG1,κ antibody, VH SEQ ID NO:3, VL SEQ ID NO:4 (antibody, listed as Homo sapiens, V domains shown)
VH: EVQLLESGGGLVQPGGSLRLSCAASGFTFSSYAMTWVRQAPGKGLEWVSAISISGASTFYADSVKGRFTISRDNSKNTLSLQMNSLRAEDTAVYFCRGYSGYVYDAFDIWGQGTMVTVSS
VL: DIQMTQSPSSLSASVGDRVTITCRASQGISNWLAWYQQKPEKAPKSLIYAASSLQSGVPSRFSGSGSGTDFTLTISSLQPEDFATYYCQQYNSYPLTFGGGTKVEIK
**Q.** For B6, which “Maximal binding (Arbitrary units)” value [9] is on record?
**A.** Its value is 2889 Arbitrary units.

B7: IgG1-AXL-187: AXL-specific human IgG1,κ antibody, VH SEQ ID NO:19, VL SEQ ID NO:20 (antibody, listed as Homo sapiens, V domains shown)
VH: QVPLQQWGAGLLKPSETLSLTCAVYGGSFSGYHWSWIRQPPGKGLEWIGEISHSGRTNYNPSLKSRVTISIDTSKNQFSLKLSSVTAADTAVYYCASFITMIRGTIITHFDYWGQGTLVTVSS
VL: DIQMTQSPSSLSASVGDRVTITCRASQGISSWLAWYQQKPEKAPKSLIYAASSLQSGVPSRFSGSGSGTDFTLTISSLQPEDFATYYCQQYHSYPYTFGQGTKLEIK
**Q.** Which “Maximal binding (Arbitrary units)” value [9] does the source give for B7 here?
**A.** The value was 2563 Arbitrary units.
